These results are taken from doi:10.1101/2020.02.11.944462 (bioRxiv, 2020).

This experiment deals with T1, human angiotensin-converting enzyme 2 (ACE2), residues 1-615, untagged (human, UniProt Q9BYF1 18-615).
T1 construct: also called human ACE2; not shown: TwinStrepTag, C-terminal, cleaved; 8XHisTag, C-terminal, cleaved
As to the kind of experiment: SPR; […], Biacore X100; 10 mM HEPES pH 8.0, 150 mM NaCl, 0.05% Tween 20; […]; 1:1 binding model. Conditions: both partners purified. A general note: Surface plasmon resonance follows binding to a sensor surface in real time, without labels.

T1 sequence (Q9BYF1 18-615): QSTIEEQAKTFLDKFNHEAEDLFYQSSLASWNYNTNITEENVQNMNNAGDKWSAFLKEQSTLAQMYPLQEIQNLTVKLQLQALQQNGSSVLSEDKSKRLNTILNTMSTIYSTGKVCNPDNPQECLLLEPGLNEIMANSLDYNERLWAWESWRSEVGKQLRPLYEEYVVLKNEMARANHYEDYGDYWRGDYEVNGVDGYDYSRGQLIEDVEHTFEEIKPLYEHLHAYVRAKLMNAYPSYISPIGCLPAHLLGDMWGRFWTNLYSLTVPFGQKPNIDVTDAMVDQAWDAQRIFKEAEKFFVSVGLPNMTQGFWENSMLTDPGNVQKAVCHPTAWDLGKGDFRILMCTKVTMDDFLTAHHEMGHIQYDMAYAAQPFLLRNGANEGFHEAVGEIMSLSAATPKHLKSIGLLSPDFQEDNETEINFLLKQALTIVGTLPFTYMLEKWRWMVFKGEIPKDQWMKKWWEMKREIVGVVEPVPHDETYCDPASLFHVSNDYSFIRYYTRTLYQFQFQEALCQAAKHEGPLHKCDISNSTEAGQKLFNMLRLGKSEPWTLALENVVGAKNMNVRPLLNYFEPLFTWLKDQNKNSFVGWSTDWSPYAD

B1: SARS-CoV RBD-SD1 (S residues 306-577, Urbani strain), His-tagged (domain or fragment)
chain: not shown
For B1, the binding result is “binds”.
